Assay results published in IntAct's records for PubMed 21390248.

Columns and labels:
1433g_mouse Ywhag [1] = target: 1433g_mouse Ywhag (UniProt P61982)
1433g_mouse Ywhag [2] = target: 1433g_mouse Ywhag (UniProt P61982); remark: listed apart in the source

Sequence of UniProt P61982 (P61982 whole entry): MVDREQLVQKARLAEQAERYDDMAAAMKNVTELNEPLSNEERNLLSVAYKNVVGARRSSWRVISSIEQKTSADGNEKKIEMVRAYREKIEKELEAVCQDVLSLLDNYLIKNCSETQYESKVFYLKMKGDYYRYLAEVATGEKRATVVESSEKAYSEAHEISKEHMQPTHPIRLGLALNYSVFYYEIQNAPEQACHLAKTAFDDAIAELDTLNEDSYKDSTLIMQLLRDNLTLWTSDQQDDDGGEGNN

Substance | effect of a mutation on the interaction (1433g_mouse Ywhag [1]) | effect of a mutation on the interaction (1433g_mouse Ywhag [2])
Leucine-rich repeat serine/threonine-protein kinase 2 (Mus musculus), Q5S006 G2019S | decreasing interaction | –
Leucine-rich repeat serine/threonine-protein kinase 2 (Mus musculus), Q5S006 S935A | decreasing interaction | –
Leucine-rich repeat serine/threonine-protein kinase 2 (Mus musculus), Q5S006 R1441G | decreasing interaction | –
Leucine-rich repeat serine/threonine-protein kinase 2 (Mus musculus), Q5S006 Y1699C | – | decreasing interaction
